For assay [1], the target named is T1, human FXI activated (human Factor XIa, full length) (human, UniProt P03951 19-387; P03951 388-625).
T1 construct: also called huFXIa; full length human FXIa
The assay is described as follows: solution equilibrium titration (SET), MSD ECL read-out, 1:2 fit, n=3; apparent KD (avidity possible).

For assay [2], the target named is T2, human FXI zymogen (human, UniProt P03951 19-625).
T2 construct: In the TGA the target is the FXI present in pooled human plasma; also called huFXI; hFXI
T2 sequence (P03951 19-625 C226S limits assumed): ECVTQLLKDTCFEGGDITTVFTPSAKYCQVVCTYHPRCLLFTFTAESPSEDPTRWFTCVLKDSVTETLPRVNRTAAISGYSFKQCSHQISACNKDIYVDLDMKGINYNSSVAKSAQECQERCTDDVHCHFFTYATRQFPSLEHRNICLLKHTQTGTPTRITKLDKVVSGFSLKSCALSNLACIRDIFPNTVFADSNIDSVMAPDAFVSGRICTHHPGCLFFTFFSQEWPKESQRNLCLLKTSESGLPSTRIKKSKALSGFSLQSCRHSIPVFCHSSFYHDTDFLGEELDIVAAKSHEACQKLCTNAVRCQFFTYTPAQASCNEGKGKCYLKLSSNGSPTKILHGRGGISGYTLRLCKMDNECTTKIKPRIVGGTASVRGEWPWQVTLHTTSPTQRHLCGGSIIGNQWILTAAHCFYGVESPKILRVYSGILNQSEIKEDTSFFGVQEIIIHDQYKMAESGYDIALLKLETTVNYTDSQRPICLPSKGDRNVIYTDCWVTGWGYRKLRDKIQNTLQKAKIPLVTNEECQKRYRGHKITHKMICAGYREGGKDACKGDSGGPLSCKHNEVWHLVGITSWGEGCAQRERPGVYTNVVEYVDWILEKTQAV
Described as above.

The target of assay [3] is T3, cynomolgus monkey FXI zymogen (cynomolgus monkey, UniProt A0A2K5VVW4 19-624).
T3 construct: also called free FXI (FXIf) in cynomolgus plasma
T3 sequence (A0A2K5VVW4 entry or part of it): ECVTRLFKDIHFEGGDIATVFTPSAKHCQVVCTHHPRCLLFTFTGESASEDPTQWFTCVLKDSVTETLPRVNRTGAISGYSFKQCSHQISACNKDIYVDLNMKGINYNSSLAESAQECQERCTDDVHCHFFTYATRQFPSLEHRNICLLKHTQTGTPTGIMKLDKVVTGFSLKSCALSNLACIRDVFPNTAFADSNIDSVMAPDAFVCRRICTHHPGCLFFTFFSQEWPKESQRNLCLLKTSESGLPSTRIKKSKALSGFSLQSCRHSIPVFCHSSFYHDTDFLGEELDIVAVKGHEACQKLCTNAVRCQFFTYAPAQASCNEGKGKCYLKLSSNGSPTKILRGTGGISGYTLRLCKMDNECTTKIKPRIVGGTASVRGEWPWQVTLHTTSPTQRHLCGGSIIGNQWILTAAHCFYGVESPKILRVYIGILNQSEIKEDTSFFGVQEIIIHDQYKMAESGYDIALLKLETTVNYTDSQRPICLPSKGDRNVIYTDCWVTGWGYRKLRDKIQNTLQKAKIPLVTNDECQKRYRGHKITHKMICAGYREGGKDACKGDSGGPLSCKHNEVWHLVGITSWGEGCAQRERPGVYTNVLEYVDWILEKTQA
The experiment in a line: solution equilibrium titration (SET); apparent KD, N=2; cynomolgus monkey FXI zymogen; apparent KD, SET, N=2.

Assay [4] deals with T4, activated cynomolgus monkey FXI (cynomolgus monkey, UniProt A0A2K5VVW4 19-387; A0A2K5VVW4 388-625).
T4 construct: also called cynomolgus monkey FXIa; cynomolgus monkey FXI (active form)
T4 sequence (chain, as listed by the source, form in doubt, chain 1 of 2): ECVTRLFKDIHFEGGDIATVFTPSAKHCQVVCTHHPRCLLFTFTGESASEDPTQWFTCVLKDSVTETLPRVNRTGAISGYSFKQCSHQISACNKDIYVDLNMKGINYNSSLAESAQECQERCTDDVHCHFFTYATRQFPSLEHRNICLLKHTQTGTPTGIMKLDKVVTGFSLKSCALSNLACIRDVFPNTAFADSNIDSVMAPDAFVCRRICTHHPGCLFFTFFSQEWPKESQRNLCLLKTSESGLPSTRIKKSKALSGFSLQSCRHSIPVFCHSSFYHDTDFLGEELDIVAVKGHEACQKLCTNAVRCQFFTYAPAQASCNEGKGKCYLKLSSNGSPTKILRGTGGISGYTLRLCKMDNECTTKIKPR
T4 sequence (chain, as listed by the source, form in doubt, chain 2 of 2): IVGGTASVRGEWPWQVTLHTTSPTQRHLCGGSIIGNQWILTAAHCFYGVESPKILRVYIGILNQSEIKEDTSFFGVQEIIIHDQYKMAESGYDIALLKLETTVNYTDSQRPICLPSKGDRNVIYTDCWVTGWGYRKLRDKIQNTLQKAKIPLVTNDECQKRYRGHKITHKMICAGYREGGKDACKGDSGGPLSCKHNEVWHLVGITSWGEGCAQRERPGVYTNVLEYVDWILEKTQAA
The assay is described as follows: solution equilibrium titration (SET); apparent KD, N=2; activated cynomolgus monkey FXI; apparent KD, SET, N=2.

The target in assay [5] is T1, human FXI activated (human Factor XIa, …). The assay is described as follows: cell-based or functional assay.
For assay [6], the target named is T2, human FXI zymogen. The assay is described as follows: cell-based or functional assay.
The target in assay [7] is T5, human FXI catalytic domain (residues 388-625, Swissprot P03951) (human, UniProt P03951 388-625).
T5 construct: it is treated here as the same molecule; also called FXI CD; FXIa CD
T5 sequence (P03951 388-625 limits assumed, form in doubt, one chain of several): as the sequence (chain, as listed by the source, form in doubt, chain 2 of 2) above, with I59S, D156E, L225V, A238V counted along it
The experiment in a line: SPR (BIACORE T200), IgG captured by goat anti-human IgG-Fc, FXI catalytic domain 0-200 nM as analyte, 25 C, 1:1 model, n=2.

Assay [8] has as its target T1, human FXI activated (human Factor XIa, …). The assay is described as follows: solution equilibrium titration (SET), MSD ECL read-out, 1:1 fit, n=3.
Assay [9] concerns the target T2, human FXI zymogen. The description is as above.
Assay [10] has as its target T1, human FXI activated (human Factor XIa, …). The experiment in a line: SET KD compared with SPR KD for the FXI catalytic domain.
For assay [11], the target named is T2, human FXI zymogen. Described as above.
For assay [12], the target named is T2, human FXI zymogen. The assay is described as follows: SET.
In assay [13] the target is T5, human FXI catalytic domain (residues …). The assay is described as follows: SPR (BIACORE T200), Fab amine-coupled on CM5 chip, FXI catalytic domain 0-200 nM as analyte, 25 C, 1:1 model, n=3.

T1 sequence (P03951 19-387 C226S limits assumed, form in doubt, chain 1 of 2): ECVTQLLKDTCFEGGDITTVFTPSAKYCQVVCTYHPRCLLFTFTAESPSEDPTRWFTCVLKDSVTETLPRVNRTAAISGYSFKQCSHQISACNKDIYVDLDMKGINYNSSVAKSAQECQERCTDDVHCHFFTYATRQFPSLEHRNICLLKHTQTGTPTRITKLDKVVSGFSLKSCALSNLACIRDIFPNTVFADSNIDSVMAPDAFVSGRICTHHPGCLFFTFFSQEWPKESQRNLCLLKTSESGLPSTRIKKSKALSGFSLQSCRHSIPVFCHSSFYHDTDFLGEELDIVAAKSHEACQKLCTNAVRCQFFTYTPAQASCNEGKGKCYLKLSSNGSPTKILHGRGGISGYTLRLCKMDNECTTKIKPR
T1 sequence (P03951 388-625 limits assumed, form in doubt, chain 2 of 2): as the sequence (chain, as listed by the source, form in doubt, chain 2 of 2) above, with I59S, D156E, L225V, A238V counted along it

B1: NOV1401 (human IgG1/lambda antibody with D265A and P329A in the Fc) (antibody, V domains shown)
VH: QVQLLESGGGLVQPGGSLRLSCAASGFTFSTAAMSWVRQAPGKGLEWVSGISGSGSSTYYADSVKGRFTISRDNSKNTLYLQMNSLRAEDTAVYYCARELSYLYSGYYFDYWGQGTLVTVSS
VL: QSVLTQPPSASGTPGQRVTISCSGSSSNIGSNDVSWYQQLPGTAPKLLIYKNYNRPSGVPDRFSGSKSGTSASLAISGLQSEDEADYYCSAWDQRQFDVVFGGGTKLTVLG
notes: also called NOV1401-IgG; NOV1401-Antibody
On to B1, for which the Kd stood at 0.0047 nM in [1]; 0.0013 nM with human FXI zymogen [2]; 0.005 nM in assay [3]; 0.0125 nM in assay [4]; 21 nM in assay [7]. Also, the “IC50, inhibition of the enzymatic activity of full length human FXIa (cleavage of the fluorescent peptide D-Leu-Pro-Arg*Rh110-D-Pro)” value in assay [5] is around 0.16 nM. The “IC50, inhibition of thrombin generation in the TGA with pooled human plasma” value in the assay with human FXI zymogen [6] amounted to 24 nM. Also, the koff in assay [7] amounted to 0.00088 s⁻¹. This molecule gave a kon in [7] of 42000 M⁻¹ s⁻¹.

B2: NOV1401-Fab (Fab, V domains shown)
VH: B1 VH
VL: B1 VL
notes: also called Fab of the NOV1401 antibody; Fab portion of NOV1401
For the molecule B2, the results for the Kd (in assay [8]; with human FXI zymogen [9]; in assay [13]) were 0.305 nM, 0.062 nM and 19 nM, respectively. The “fold higher affinity than to the catalytic domain” value in [10] is 66 fold; with human FXI zymogen [11] it was 300 fold. Besides, the “fold higher affinity than to the activated FXI” value in the assay with human FXI zymogen [12] amounted to 5 fold. Besides, the koff in [13] is 0.00061 s⁻¹. In addition, the kon in [13] was 32000 M⁻¹ s⁻¹.

Broadly, the koff is a measure of how fast the partners let go of each other. The term kon denotes the second-order rate constant of association.

The values are drawn from patent US20170022292A1 (Novartis, published 2017).
